For test [1], the target named is HIV envelope gp120 of HIV recombinant strain NL43 that expresses GFP (HIV-1). The test can be described thus: cell-based or functional assay.
Test [2] has as its target HIV envelope gp120 of HIV-1 strain HXB2 engineered to express Green Fluorescence Protein (HIV-1) (UniProt P04578). In words: cell-based or functional assay.

As to “sCD4(D1+D2) (from UniProt P01730 26-203) (receptor)”, in test [1], the % GFP positive cells, FIG. 8A, AGT116-transduced PBMC (control 0.46%) amounted to 0.3%; the % GFP positive cells, FIG. 8B, AGT116-transduced PBMC (control 7.75%) was determined as 3.67%; the % HIV positive primary CD4 T cells, AGT116-transduced (control 2.83%) amounted to 2.65%.

“VRC01 antibody (IL-2 secretory signal construct, expressed from AGT111)”: in test [1], the % GFP positive cells, CD4 T cells, AGT111 at 2 MOI, day 5 (no vector 0.71%) was found to be 0.38%; the % GFP positive cells, CD4 T cells, AGT111 at 2 MOI, day 7 (no vector 2.18%) was determined as 1.37%; the % GFP positive cells, CD4 T cells, AGT111 at 4 MOI, day 5 (no vector 0.71%) was 0.32%; the % GFP positive cells, CD4 T cells, AGT111 at 4 MOI, day 7 (no vector 2.18%) was found to be 0.94%. Further, in test [1], the % GFP positive cells, CD4 T cells, AGT111 at 8 MOI, day 5 (no vector 0.71%) stood at 0.25%; the % GFP positive cells, CD4 T cells, AGT111 at 8 MOI, day 7 (no vector 2.18%) came to 0.36%; the decrease in HIV infection, C8166 cells amounted to 75.4%; the percent inhibition (cells protected), day 5, AGT111 MOI 8 stood at 88%. Also, in test [1], the percent inhibition (cells protected), day 7, AGT111 MOI 8 is 93%; the percent inhibition (cells protected), day 9, AGT111 MOI 2 turned out to be 6%; the percent inhibition (cells protected), day 9, AGT111 MOI 4 turned out to be 7%.

“VRC01 antibody (antibody secretory signal construct, expressed from AGT113)”: in test [1], the % HIV positive primary CD4 T cells, AGT113-transduced (un-transduced 1.28%) stood at 0.36% and the decrease in HIV infection, C8166 cells turned out to be 96.7%.

Regarding “3BNC117 antibody (IL-2 secretory signal construct, expressed from AGT112)”, in test [1], the % GFP positive (HIV-infected) cells, transduced PBMC, donor NY025 (control without vector 3.96%) was found to be 1.79% and the % GFP positive (HIV-infected) cells, transduced PBMC, donor NY026 (control without vector 0.57%) amounted to 0.3%.

In test [2], sCD4(D1+D2)-IgG1 Fc (Fc fusion) came in with a % GFP positive C8166 cells, HXB2-GFP with version 1, replicate 2 of 1.22% and an inhibition of virus infection, HXB2-GFP challenge of C8166 cells of 91%. For the same substance, in test [1], the % GFP positive C8166 cells, NL4-GFP with version 1, average came out at 8.47%; the % GFP positive C8166 cells, NL4-GFP with version 1, replicate 2 stood at 7.49%; the % GFP positive cells, FIG. 8A, AGT117-transduced PBMC, column NL43-sCD4-Ig (control 0.46%) is 0.26%; the % GFP positive cells, FIG. 8B, AGT117-transduced PBMC, column NL43-sCD4-Ig (control 7.75%) is 2.98%. In test [1], the % HIV positive primary CD4 T cells, AGT117-transduced (control 2.83%) was 0.65%; the decrease in HIV infection, primary CD4 T cells stood at 77%; the proportion of infected CD4 T cells, AGT117-transduced (no vector average of 2%) stood at 0.024%; the virus inhibition, NL4-GFP challenge of C8166 cells was 53%.

(Values after US20240279678A1.)
